# Experimental data: the supplement of paper PMC10126150
# ± gives the standard deviation of the averaged measurements.
# Test system: ATP
# Test: switch fluorescence ratio, 500 uM ATP over buffer (Cy3 cluster intensity, sum of 5 cycles each) (fold (ratio)); higher = stronger signal-on switching upon ATP binding; sequences stand for … in TCGTCGGCAGCGTCAGATGTGTATAAGAGACAGTTTTTTTTTTTTTTTTTTTTTTTTT…TC
# Conditions: aptamer strand: ATP DNA aptamer (quencher-CACCTGGGGGAGTATTGCGGAGGAAGG + anchor), 100 nM annealed; ATP concentration: 500 uM
# Outline: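 Between each of five buffer/ATP cycles, the flow-cell was stripped with NaOH and re-annealed. Each cycle imaged Cy3-labelled switching-strand clusters, annealed to 100 nM quencher-labelled ATP aptamer on a modified Illumina MiSeq flow-cell, first in selection buffer and then after 15 min with 500 uM ATP at 22 °C. The fluorescence ratio is summed target-cycle over summed buffer-cycle Cy3 intensity per cluster, averaged per switch-domain sequence, with clusters outside 100-1000 RFU excluded.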
# 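Note: ATP exposure 15 min at 22 °C before imaging.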
row,Sequence,switch fluorescence ratio
1,TCAAACGCGT,1.01 ± 0.037
2,TCAAACGGGG,1 ± 0.045
3,TCAAACGTAG,0.9793 ± 0.0085
4,TCAAACTGTT,1.08 ± 0.025
5,TCAAAGAGGT,0.98204 ± 0.00058
6,TCAAAGGGTC,1 ± 0.088
7,TCAAAGTGTA,0.968 ± 0.064
8,TCAAATAGTT,0.997 ± 0.0026
9,TCAAATGGGC,0.9965 ± 0.0031
10,TCAACAGTTG,0.998 ± 0.011
11,TCAACCAATG,1.04 ± 0.0039
12,TCAACCGGGG,1.079 ± 0.0021
13,TCAACCGTTT,1.02 ± 0.065
14,TCAACGCAGG,1.19 ± 0.065
15,TCAACTATGG,0.989 ± 0.075
16,TCAACTGGAT,0.9502 ± 0.0053
17,TCAAGCACTT,1.25 ± 0.028
18,TCAAGCCCAT,1 ± 0.045
19,TCAAGCTCAT,0.974 ± 0.023
20,TCAAGGCACC,1.1 ± 0.023
21,TCAAGGTTCT,0.998 ± 0.014
22,TCAAGTGAGG,1.01 ± 0.011

row,Sequence,switch fluorescence ratio
1,TCAAGTGGCC,1.02 ± 0.037
2,TCAAGTTTGG,1.02 ± 0.018
3,TCAATAATCG,1.01 ± 0.055
4,TCAATAGAAT,1.06 ± 0.14
5,TCAATAGAGT,1.039 ± 0.0024
6,TCAATCTCCT,1.03 ± 0.088
7,TCAATGATTT,0.969 ± 0.022
8,TCAATGGGGA,0.998 ± 0.013
9,TCAATGTAGT,1 ± 0.058
10,TCAATTAACT,1.03 ± 0.013
11,TCAATTCGAG,0.9884 ± 0.009
12,TCAATTGTAA,1.05 ± 0.051
13,TCAATTTTGC,1.02 ± 0.034
14,TCAATTTTTT,0.993 ± 0.016
15,TCACAGCCTG,0.9973 ± 0.0019
16,TCACAGGGGG,1.14 ± 0.12
17,TCACATGGGA,0.976 ± 0.011
18,TCACCAGATT,1.017 ± 0.008
19,TCACCATTCA,1.052 ± 0.0059
20,TCACGTGGTA,1.02 ± 0.021
21,TCACTATACT,1.41 ± 0.085
22,TCACTGGGTA,0.995 ± 0.014

row,Sequence,switch fluorescence ratio
1,TCACTGGTTC,1.032 ± 0.0038
2,TCACTGTCGC,1.13 ± 0.07
3,TCACTGTTTC,1.011 ± 0.0076
4,TCACTTCAAT,1.033 ± 0.0099
5,TCACTTTGCG,0.984 ± 0.032
6,TCAGAAATAG,1.24 ± 0.15
7,TCAGAGGCTG,0.988 ± 0.015
8,TCAGAGGGGG,0.992 ± 0.036
9,TCAGAGTGTG,0.989 ± 0.019
10,TCAGATAAAT,1.27 ± 0.35
11,TCAGATTGCA,1.007 ± 0.0025
12,TCAGCGAAAT,0.99 ± 0.016
13,TCAGCGACTT,1.01 ± 0.031
14,TCAGCGGGGA,1.001 ± 0.0066
15,TCAGCGTACG,1.01 ± 0.014
16,TCAGCGTGTG,1.0181 ± 0.00046
17,TCAGGACTCG,0.982 ± 0.035
18,TCAGGATATG,0.988 ± 0.035
19,TCAGGCGTTT,0.996 ± 0.024
20,TCAGGGACAG,1.02 ± 0.021
21,TCAGGGCAGC,1.01 ± 0.019
22,TCAGGGCGAT,1.03 ± 0.026

row,Sequence,switch fluorescence ratio
1,TCAGGGGCTT,1.16 ± 0.28
2,TCAGGGGGAA,1.01 ± 0.024
3,TCAGGGGTTA,1.03 ± 0.031
4,TCAGGGGTTC,0.9918 ± 0.0084
5,TCAGGGTTGA,1.03 ± 0.044
6,TCAGGTCTGT,0.9958 ± 0.0074
7,TCAGTAATAA,1.345 ± 0.013
8,TCAGTAGGCT,1.043 ± 0.0032
9,TCAGTCATGT,0.992 ± 0.028
10,TCAGTTATTT,1.04 ± 0.055
11,TCAGTTGACT,1.011 ± 0.0055
12,TCAGTTGTTG,1 ± 0.045
13,TCAGTTTGAG,0.97806 ± 0.0007
14,TCAGTTTTAT,0.9726 ± 0.0074
15,TCATAAGTAT,0.995 ± 0.086
16,TCATAGCGCC,1.01 ± 0.045
17,TCATAGTTGG,0.979 ± 0.025
18,TCATAGTTGT,1.01 ± 0.051
19,TCATAGTTTT,1.01 ± 0.042
